Data taken from US20190112393 (published 2019).
Substitutions are numbered along the chain they refer to. Where two headings read alike, the source gives them in different places.

Columns and labels:
human IgA [1] = target: human IgA (human); assay: SPR, pH 5.8, 1.2 mM Ca, 37C
human IgA [2] = target: human IgA (human); assay: SPR, pH 7.4, 3 uM Ca, 37C
human IgA [3] = target: human IgA (human); assay: SPR, pH 5.8, 3 uM Ca, 37C
human IgA [4] = target: human IgA (human); assay: SPR, pH 7.4, 1.2 mM Ca, 37C
human IL-6 receptor = target: T1, human IL-6 receptor (human, UniProt P08887); assay: SPR, pH 7.4, 3 uM Ca, 37C
T1 chain: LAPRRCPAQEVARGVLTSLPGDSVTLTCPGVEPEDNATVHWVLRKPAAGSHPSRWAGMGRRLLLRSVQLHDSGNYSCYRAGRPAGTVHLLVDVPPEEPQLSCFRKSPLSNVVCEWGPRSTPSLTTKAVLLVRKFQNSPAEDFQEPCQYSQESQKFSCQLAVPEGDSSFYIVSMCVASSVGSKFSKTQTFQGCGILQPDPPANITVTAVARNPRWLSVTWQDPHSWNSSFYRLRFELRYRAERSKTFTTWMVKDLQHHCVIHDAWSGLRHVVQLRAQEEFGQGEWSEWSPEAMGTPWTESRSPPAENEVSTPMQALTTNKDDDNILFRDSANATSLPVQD

human FcγRIIa type H = target: T2, human FcγRIIa type H (human, UniProt P12318); assay: SPR
T2 chain: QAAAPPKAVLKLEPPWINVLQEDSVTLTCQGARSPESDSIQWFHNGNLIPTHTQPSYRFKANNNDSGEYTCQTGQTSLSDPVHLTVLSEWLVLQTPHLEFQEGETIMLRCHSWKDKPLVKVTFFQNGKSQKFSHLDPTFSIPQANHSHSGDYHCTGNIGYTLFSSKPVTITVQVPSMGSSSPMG

human FcγRIa [5] = target: T3, human FcγRIa (human, UniProt P12314); assay: SPR
T3 chain: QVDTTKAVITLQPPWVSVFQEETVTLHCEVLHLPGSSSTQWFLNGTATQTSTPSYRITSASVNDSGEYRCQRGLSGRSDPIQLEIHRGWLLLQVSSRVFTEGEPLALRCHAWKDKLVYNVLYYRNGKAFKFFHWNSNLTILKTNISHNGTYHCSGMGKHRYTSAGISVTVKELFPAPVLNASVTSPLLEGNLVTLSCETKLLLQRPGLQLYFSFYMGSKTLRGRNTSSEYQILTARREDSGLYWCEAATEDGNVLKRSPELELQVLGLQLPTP

human IgE [6] = target: human IgE (human); assay: SPR, pH 7.4, 1.2 mM Ca, 37C
human IgE [7] = target: human IgE (human); assay: SPR, pH 5.8, 1.2 mM Ca, 37C
human IgE [8] = target: human IgE (human); assay: SPR, pH 5.8, 3 uM Ca, 37C
human FcγRIIb = target: T4, human FcγRIIb (human, UniProt P31994); assay: SPR
T4 chain: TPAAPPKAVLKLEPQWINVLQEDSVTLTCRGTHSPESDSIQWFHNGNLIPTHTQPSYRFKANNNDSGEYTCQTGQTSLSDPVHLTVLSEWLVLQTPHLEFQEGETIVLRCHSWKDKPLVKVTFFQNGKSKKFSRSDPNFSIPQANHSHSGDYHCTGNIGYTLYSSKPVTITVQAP

human FcγRIa [9] = target: T3, human FcγRIa; assay: SPR
human FcγRIa [10] = target: T3, human FcγRIa; assay: SPR

Chain of human IgA (human) (VH, as listed by the source): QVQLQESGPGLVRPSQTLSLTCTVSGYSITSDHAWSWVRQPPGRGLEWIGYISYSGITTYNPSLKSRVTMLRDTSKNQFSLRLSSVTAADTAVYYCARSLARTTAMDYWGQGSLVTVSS

B1: GA2-IgG1 (antibody, V domains shown)
VH: QVQLVQSGAEVKKPGSSVKVSCKASGGTFSSYAISWVRQAPGQGLEWMGGIIPIFGTANYAQKFQGRVTITADESTSTAYMELSSLRSEDTAVYYCARPRWETAISSDAFDIWGQGTMVTVSS
VL: DIQMTQSPSSLSASVGDRVTITCRASQSISDDLNWYQQKPGKAPKLLIYEASNLQSGVPSRFSGSGSGTDFTLTISSLQPEDFATYYCQQHSSSPLTFGQGTKVEIKR
A Kd (human IgA [1]) of 4000 nM, a Kd (human IgA [2]) of 6700 nM and a Kd (human IgA [3]) of 5000 nM were found for B1 in this work. For the same binder, the Kd (human IgA [4]) was 39 nM.

B2: FH4-IgG1 (antibody, V domains shown)
VH: QVQLVQSGAEVKKPGSSVKVSCKASGGTFSSYAISWVRQAPGQGLEWMGGIIPIFGTANYAQKFQGRVTITADESTSTAYMELSSLRSEDTAVYYCARERDYYDSSGYYDAFDIWGQGTMVTVSS
VL: ETTVTQSPSFLSASVGDRVTITCITTTDIDDDMNWFQQEPGKAPKLLISEGNILRPGVPSRFSSSGYGTDFTLTISKLQPEDFATYYCLQSDNLPFTFGQGTKLEIKR
For B2, the Kd (human IL-6 receptor) was > 34000 nM.

B3: BP438 (antibody)
chain 1: QVQLQESGPGLVKPSETLSLTCAVSGHSISHDHAWSWVRQPPGEGLEWIGFISYSGITNYNPSLQGRVTISRDNSKNTLYLQMNSLRAEDTAVYYCARSLARTTAMDYWGEGTLVTVSSASTKGPSVFPLAPSSKSTSGGTAALGCLVKDYFPEPVTVSWNSGALTSGVHTFPAVLQSSGLYSLSSVVTVPSSSLGTQTYICNVNHKPSNTKVDKKVEPKSCDKTHTCPPCPAPDLLGDDSVFLFPPKPKDTLMISRTPEVTCVVVDVAEEDGEVKFNWYVDGVEVHNAKTKPREEQYNSTYRVVSVLTVLHQDWLNGKEYKCKVSNKALPRPTEKTISKAKGQPREPQVYTLPPSRDELTKNQVSLTCLVKGFYPSDIAVEWESNGQPENNYKTTPPVLDSDGSFFLYSKLTVDKSRWQQGNVFSCSVMHEALHNHYTQESLSLSP
chain 2: not shown
A Kd (human FcγRIIa type H) of 1600 nM was found for B3 in this work.

B4: BP447 (antibody)
chain 1: B3 chain 1 with T334I, P398A
chain 2: not shown
A Kd (human FcγRIa [5]) of 0.9 nM was found for B4 in this work.

B5: 278-IgG1 (clone 278) (antibody, V domains shown)
VH: QSLEESGGRLVTPGTPLTLTCTASGFSLSSYHMSWVRQAPGKGLEWIGVINSAGNTYYASWAKGRFTVSKTSTTVDLNLTSLTTEDTATYFCARYVFSSGSHDIWGPGTLVTVSS
VL: AYDMTQTPASVEVAVGGTVTIKCQASQSIGSWLAWYQQKPGQPPKELIYGTSTLESGVPSRFIGSGSGTEFTLTISGVECADAATYYCQQGYSEDNIDNAFGGGTEVVVKR
A Kd (human IgE [6]) of 2.4 nM, a Kd (human IgE [7]) of 2000 nM and a Kd (human IgE [8]) of 3900 nM were found for B5 in this work.

B6: BP468 (antibody)
chain 1: B3 chain 1 with A269S, E270D, Y298D, T334I, K336T
chain 2: not shown
A Kd (human FcγRIIb) of 40 nM was found for B6 in this work.

B7: 6RL#9-IgG1 (antibody, V domains shown)
VH: QVQLVQSGAEVKKPGASVKVSCKASGYTFTSYYMHWVRQAPGQGLEWMGIINPSGGSTSYAQKFQGRVTMTRDTSTSTVYMELSSLRSEDTAVYYCARDDPGGGEYYFDYWGQGTLVTVSS
VL: QSVLTQPPSVSGAPGQRVTISCTGSRSNMGAGYDVHWYQLLPGAAPKLLISHNTHRPSGVPDRFSGSKSGASASLAITGLQAEDEADYYCQSHDSSLSAVVFGGGTKLTVLS
With B7 the Kd (human IL-6 receptor) was > 31000 nM.

B8: BP456 (antibody)
chain 1: B3 chain 1 with T334I, P398M
chain 2: not shown
A Kd (human FcγRIa [5]) of 0.6 nM was found for B8 in this work.

B9: BP384 (antibody)
chain 1: B3 chain 1 with A269S, E270D, Y298D, T334I, K336R
chain 2: not shown
A Kd (human FcγRIa [9]) of 3 nM was found for B9 in this work.

B10: BP267 (antibody)
chain 1: B3 chain 1 with A269S, R332A, T334I
chain 2: not shown
A Kd (human FcγRIa [10]) of 4 nM was found for B10 in this work.
